Publication PMC12078616, “A FAN1 point mutation associated with accelerated Huntington’s disease progression alters its PCNA-mediated assembly on DNA”

Tests used:
[1] = target: FAN1 WT;PCNA WT (human;human, UniProt Q9Y2M0;P12004 1-1017;1-261, |); experiment: SPR; FAN1 titrated, 10 µM PCNA WT; MST: 25 mM HEPES pH 7.5, 125 mM KCl, 10 mM CaCl2, 5% glycerol, 1 mM TCEP, 0.005% Tween-20, 0.1% BSA, 10 nM Cy5-DNA, 25 °C; SPR buffer not in the material; conditions: protein: recombinant;recombinant; tags: His tag removed by PreScission;His tag removed by PreScission; copies: 1;3; label: 5'-biotin (SPR); blunt; one unpaired nt in strand 2
Chain of FAN1 WT;PCNA WT (Q9Y2M0 whole entry, chain 1 of 2): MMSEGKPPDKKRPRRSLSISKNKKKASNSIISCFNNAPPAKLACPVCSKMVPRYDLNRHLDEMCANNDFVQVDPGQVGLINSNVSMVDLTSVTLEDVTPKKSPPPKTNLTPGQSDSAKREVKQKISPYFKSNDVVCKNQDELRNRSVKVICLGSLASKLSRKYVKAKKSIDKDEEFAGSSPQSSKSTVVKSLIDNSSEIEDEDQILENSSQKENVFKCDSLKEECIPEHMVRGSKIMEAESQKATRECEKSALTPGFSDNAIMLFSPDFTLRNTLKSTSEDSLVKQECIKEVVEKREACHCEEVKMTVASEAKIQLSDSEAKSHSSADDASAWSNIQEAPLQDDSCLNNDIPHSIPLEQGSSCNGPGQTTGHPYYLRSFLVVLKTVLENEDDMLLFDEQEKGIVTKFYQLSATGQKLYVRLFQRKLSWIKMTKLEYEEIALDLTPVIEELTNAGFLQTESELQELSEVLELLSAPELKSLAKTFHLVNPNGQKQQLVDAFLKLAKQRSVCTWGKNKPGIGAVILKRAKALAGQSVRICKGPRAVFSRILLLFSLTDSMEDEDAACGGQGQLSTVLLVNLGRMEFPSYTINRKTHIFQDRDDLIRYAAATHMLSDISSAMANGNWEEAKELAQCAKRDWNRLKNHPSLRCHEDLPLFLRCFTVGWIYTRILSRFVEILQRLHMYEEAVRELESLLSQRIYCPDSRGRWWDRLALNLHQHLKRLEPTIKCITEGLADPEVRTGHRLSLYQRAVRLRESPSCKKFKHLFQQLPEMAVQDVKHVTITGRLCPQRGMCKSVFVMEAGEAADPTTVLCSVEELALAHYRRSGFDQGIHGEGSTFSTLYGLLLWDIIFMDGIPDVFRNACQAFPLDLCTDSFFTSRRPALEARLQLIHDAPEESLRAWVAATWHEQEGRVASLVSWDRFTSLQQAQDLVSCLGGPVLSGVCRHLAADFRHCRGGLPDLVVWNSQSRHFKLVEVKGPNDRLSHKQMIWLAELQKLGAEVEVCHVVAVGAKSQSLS
Chain of FAN1 WT;PCNA WT (P12004 whole entry, chain 2 of 2): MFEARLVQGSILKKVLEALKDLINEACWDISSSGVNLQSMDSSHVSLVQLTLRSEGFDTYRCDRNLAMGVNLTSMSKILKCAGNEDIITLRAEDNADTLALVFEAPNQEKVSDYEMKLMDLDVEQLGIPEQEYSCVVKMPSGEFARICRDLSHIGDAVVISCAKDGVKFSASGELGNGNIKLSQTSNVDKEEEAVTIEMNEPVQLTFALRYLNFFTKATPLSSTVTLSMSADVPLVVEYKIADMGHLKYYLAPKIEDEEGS

[2] = target: T1, FAN1 WT (human, UniProt Q9Y2M0 1-1017); experiment: SPR; no PCNA; MST: 25 mM HEPES pH 7.5, 125 mM KCl, 10 mM CaCl2, 5% glycerol, 1 mM TCEP, 0.005% Tween-20, 0.1% BSA, 10 nM Cy5-DNA, 25 °C; SPR buffer not in the material; conditions: protein: recombinant; tags: His tag removed by PreScission; label: 5'-biotin (SPR); blunt; one unpaired nt in strand 2
T1 sequence (Q9Y2M0 whole entry): as the sequence (Q9Y2M0 whole entry, chain 1 of 2) above

[3] = target: T2, PCNA WT;FAN1 WT (human;human, UniProt P12004;Q9Y2M0 1-261;1-1017, |); experiment: SPR; PCNA titrated, 100 nM FAN1; MST: 25 mM HEPES pH 7.5, 125 mM KCl, 10 mM CaCl2, 5% glycerol, 1 mM TCEP, 0.005% Tween-20, 0.1% BSA, 10 nM Cy5-DNA, 25 °C; SPR buffer not in the material; conditions: protein: recombinant;recombinant; tags: His tag removed by PreScission;His tag removed by PreScission; chain copies: 3;1; label: 5'-biotin (SPR); blunt; one unpaired nt in strand 2
T2 sequence (P12004 whole entry, chain 1 of 2): as the sequence (P12004 whole entry, chain 2 of 2) above
T2 sequence (Q9Y2M0 whole entry, chain 2 of 2): as the sequence (Q9Y2M0 whole entry, chain 1 of 2) above

[4] = target: PCNA WT;FAN1 R507H (human;human, UniProt P12004;Q9Y2M0 1-261;1-1017, |R507H); experiment: as above; conditions: protein: recombinant;recombinant; tags: His tag removed by PreScission;His tag removed by PreScission; chain copies: 3;1; label: 5'-biotin (SPR); blunt; one unpaired nt in strand 2
Chain of PCNA WT;FAN1 R507H (P12004 whole entry, chain 1 of 2): as the sequence (P12004 whole entry, chain 2 of 2) above
Chain of PCNA WT;FAN1 R507H (Q9Y2M0 whole entry R507H, chain 2 of 2): as the sequence (Q9Y2M0 whole entry, chain 1 of 2) above, with R507H counted along it

[5] = target: PCNA WT;trFAN1 WT (human;human, UniProt P12004;Q9Y2M0 1-261;371-1017, |); experiment: SPR; PCNA titrated, 100 nM trFAN1; MST: 25 mM HEPES pH 7.5, 125 mM KCl, 10 mM CaCl2, 5% glycerol, 1 mM TCEP, 0.005% Tween-20, 0.1% BSA, 10 nM Cy5-DNA, 25 °C; SPR buffer not in the material; conditions: protein: recombinant;recombinant; tags: His tag removed by PreScission;His tag removed by PreScission; chain copies: 3;1; label: 5'-biotin (SPR); blunt; one unpaired nt in strand 2
Chain of PCNA WT;trFAN1 WT (P12004 whole entry, chain 1 of 2): as the sequence (P12004 whole entry, chain 2 of 2) above
Chain of PCNA WT;trFAN1 WT (Q9Y2M0 371-1017, chain 2 of 2): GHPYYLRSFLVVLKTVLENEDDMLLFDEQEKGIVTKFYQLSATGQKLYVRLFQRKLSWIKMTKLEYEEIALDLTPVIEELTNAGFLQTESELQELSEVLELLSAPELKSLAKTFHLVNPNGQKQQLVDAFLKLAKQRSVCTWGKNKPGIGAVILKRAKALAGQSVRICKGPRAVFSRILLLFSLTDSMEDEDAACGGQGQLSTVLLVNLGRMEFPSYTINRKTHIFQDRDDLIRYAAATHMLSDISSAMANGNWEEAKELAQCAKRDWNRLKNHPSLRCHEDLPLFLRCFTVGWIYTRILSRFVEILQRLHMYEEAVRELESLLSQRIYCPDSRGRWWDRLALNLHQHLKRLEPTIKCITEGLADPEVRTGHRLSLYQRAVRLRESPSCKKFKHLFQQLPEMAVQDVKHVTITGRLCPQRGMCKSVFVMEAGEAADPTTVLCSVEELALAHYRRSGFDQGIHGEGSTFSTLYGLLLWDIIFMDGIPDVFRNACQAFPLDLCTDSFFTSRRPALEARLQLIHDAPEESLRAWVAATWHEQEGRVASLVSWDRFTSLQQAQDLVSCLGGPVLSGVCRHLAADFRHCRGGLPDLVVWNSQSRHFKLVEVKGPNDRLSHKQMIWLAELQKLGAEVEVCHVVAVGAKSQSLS

[6] = target: PCNA D232A;trFAN1 R507H (human;human, UniProt P12004;Q9Y2M0 1-261;371-1017, D232A|R507H); experiment: as above; conditions: protein: recombinant;recombinant; tags: His tag removed by PreScission;His tag removed by PreScission; chain copies: 3;1; label: 5'-biotin (SPR); blunt; one unpaired nt in strand 2
Chain of PCNA D232A;trFAN1 R507H (P12004 whole entry D232A, chain 1 of 2): as the sequence (P12004 whole entry, chain 2 of 2) above, with D232A counted along it
Chain of PCNA D232A;trFAN1 R507H (Q9Y2M0 371-1017 R507H, chain 2 of 2): as the sequence (Q9Y2M0 371-1017, chain 2 of 2) above, with R137H counted along it

[7] = target: FAN1 WT;PCNA D232A (human;human, UniProt Q9Y2M0;P12004 1-1017;1-261, |D232A); experiment: SPR; FAN1 titrated, 10 µM PCNA D232A; MST: 25 mM HEPES pH 7.5, 125 mM KCl, 10 mM CaCl2, 5% glycerol, 1 mM TCEP, 0.005% Tween-20, 0.1% BSA, 10 nM Cy5-DNA, 25 °C; SPR buffer not in the material; conditions: protein: recombinant;recombinant; tags: His tag removed by PreScission;His tag removed by PreScission; copies: 1;3; label: 5'-biotin (SPR); blunt; one unpaired nt in strand 2
Chain of FAN1 WT;PCNA D232A (Q9Y2M0 whole entry, chain 1 of 2): as the sequence (Q9Y2M0 whole entry, chain 1 of 2) above
Chain of FAN1 WT;PCNA D232A (P12004 whole entry D232A, chain 2 of 2): as the sequence (P12004 whole entry, chain 2 of 2) above, with D232A counted along it

[8] = target: T2, PCNA WT;FAN1 WT; experiment: SPR; 100 nM FAN1; Kd within 4-fold of homoduplex; koff 8.9e-3 s-1, slowest; MST: 25 mM HEPES pH 7.5, 125 mM KCl, 10 mM CaCl2, 5% glycerol, 1 mM TCEP, 0.005% Tween-20, 0.1% BSA, 10 nM Cy5-DNA, 25 °C; SPR buffer not in the material; conditions: protein: recombinant;recombinant; tags: His tag removed by PreScission;His tag removed by PreScission; chain copies: 3;1; label: 5'-biotin (SPR); blunt; (CAG)2 loop in strand 1
[9] = target: T1, FAN1 WT; experiment: cryo-EM; 3.20 Å; EMD-19844; PDB id inconsistent in paper (Data availability says 9EO1; Supp. Table 3 and text imply 9EOA); MST: 25 mM HEPES pH 7.5, 125 mM KCl, 10 mM CaCl2, 5% glycerol, 1 mM TCEP, 0.005% Tween-20, 0.1% BSA, 10 nM Cy5-DNA, 25 °C; SPR buffer not in the material; conditions: protein: recombinant; tags: His tag removed by PreScission; double flap: 1:2 1:3; 5' flap and 3' poly-T flap
[10] = target: trFAN1 crystallization construct (human, UniProt Q9Y2M0 364-1017, R507H;K794A;del510-518); experiment: X-ray crystallography; 2.65 Å; MST: 25 mM HEPES pH 7.5, 125 mM KCl, 10 mM CaCl2, 5% glycerol, 1 mM TCEP, 0.005% Tween-20, 0.1% BSA, 10 nM Cy5-DNA, 25 °C; SPR buffer not in the material; conditions: protein: recombinant; tags: His tag removed by PreScission; double flap: 1:2 1:3; 5' flap 1 nt (pG), 3' flap T4
Chain of trFAN1 crystallization construct (Q9Y2M0 other isoform, or with tags, fused parts or gaps R507H;K794A;del510-518): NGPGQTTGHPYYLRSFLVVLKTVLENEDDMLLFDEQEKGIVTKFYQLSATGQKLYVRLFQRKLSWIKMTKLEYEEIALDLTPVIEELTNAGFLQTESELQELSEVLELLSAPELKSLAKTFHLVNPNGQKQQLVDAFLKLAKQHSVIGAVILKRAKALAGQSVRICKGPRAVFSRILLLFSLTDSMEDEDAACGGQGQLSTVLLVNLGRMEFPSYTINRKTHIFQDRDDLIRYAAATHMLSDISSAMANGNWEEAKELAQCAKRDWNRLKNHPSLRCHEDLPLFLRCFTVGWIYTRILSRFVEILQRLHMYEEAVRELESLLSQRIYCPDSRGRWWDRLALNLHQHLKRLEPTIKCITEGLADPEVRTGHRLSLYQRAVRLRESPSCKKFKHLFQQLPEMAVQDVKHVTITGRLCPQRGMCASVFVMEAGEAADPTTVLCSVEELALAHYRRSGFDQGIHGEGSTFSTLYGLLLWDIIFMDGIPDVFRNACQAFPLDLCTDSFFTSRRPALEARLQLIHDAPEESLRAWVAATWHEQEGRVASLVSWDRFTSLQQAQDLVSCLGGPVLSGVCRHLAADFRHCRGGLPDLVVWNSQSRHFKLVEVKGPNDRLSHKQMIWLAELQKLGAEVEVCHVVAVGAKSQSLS

B1: 113 bp homoduplex (dsDNA)
DNA 1: CCGCTTTCTTCCCTTCCTTTGTGCACACGTTCCGAGATATCCTAGCAAGTGATCGTCTATGTAGCTCAAGAGTTCGACTTTCCCCGCTAAGCTCTACATCCGAGGCTCGCCGA
DNA 2: TCGGCGAGCCTCGGATGTAGAGCTTAGCGGGGAAAGTCGAACTCTTGAGCTACATAGTACGATCACTTGCTAGGATATCTCGGAACGTGTGCACAAAGGAAGGGAAGAAAGCGG
Question: Which Kd [1] does the source give for B1 here?
Answer: Its Kd is 7.2 ± 2.4 nM.

Question: And the Kd [2]?
Answer: The Kd was 7 ± 2.4 nM.

Question: And the Kd [3]?
Answer: The Kd was 1600 ± 900 nM.

Question: And the Kd [4]?
Answer: The Kd was 3000 ± 800 nM.

Question: And the Kd [5]?
Answer: The Kd was 3900 ± 1300 nM.

Question: What about the Kd [6] of the same binder?
Answer: Its Kd is 14000 ± 5100 nM.

Question: And the Kd [7]?
Answer: Its Kd is 5.4 ± 1.7 nM.

B2: 113 bp (CAG)2 extrahelical extrusion (dsDNA)
DNA 1: CCGCTTTCTTCCCTTCCTTTGTGCACACGTTCCGAGATATCCTAGCAAGTGATCGTCAGCAGCTATGTAGCTCAAGAGTTCGACTTTCCCCGCTAAGCTCTACATCCGAGGCTCGCCGA
DNA 2: B1 DNA 2
Question: Does B2 bind [8]?
Answer: Result: binds

B3: 5' flap DNA (cryo-EM substrate) (dsDNA)
DNA 1: CCCGTCCAGGTCTCGTCCGCGCCACTCGTGTCCAGCGTCG
DNA 2: TGCGGACGAGACCTGGACGGG
DNA 3: CGACGCTGGACACGAGTGGCTTTTTTTT
modifications: 5'-phosphate on strand 2
Question: Does B3 bind [9]?
Answer: Result: binds

B4: 5'pG1/3'T4 double flap DNA (crystallography) (dsDNA)
DNA 1: AACACGCCTAGACTCCTCA
DNA 2: TTTGAGGAGTCTTTTT
DNA 3: GAGGCGTG
modifications: 5'-phosphate on strand 3
Question: Does B4 bind [10]?
Answer: Result: binds
